From paper PMC7948495, “The flexible N-terminus of BchL autoinhibits activity through interaction with its [4Fe-4S] cluster and released upon ATP binding” (The Journal of Biological Chemistry, 2020)

Molecular target: the molecule itself
Experiment: crystal structure; nucleotide-free BchL crystallised anaerobically at 15 °C by vapor diffusion; 100 μM dimeric BchL in 100 mM Hepes pH 7.5, 150 mM NaCl, 10% glycerol, 1.7 mM dithionite; well 0.6 M NaCl, 0.1 M MES:NaOH pH 6.5, 20% PEG 4000; 2.6 Å

B1: BchL (L-protein of dark-operative protochlorophyllide oxidoreductase, DPOR) from Rhodobacter sphaeroides (enzyme, UniProt Q9RFD6 1-297, looked up)
chain: MSPKDLTIPTGADGEGSVQVHLDEADKITGAKVFAVYGKGGIGKSTTSSNLSAAFSILGKRVLQIGCDPKHDSTFTLTGSLVPTVIDVLKDVDFHPEELRPEDFVFEGFNGVMCVEAGGPPAGTGCGGYVVGQTVKLLKQHHLLDDTDVVIFDVLGDVVCGGFAAPLQHADQAVVVTANDFDSIYAMNRIIAAVQAKSKNYKVRLAGCVANRSRATDEVDRFCKETNFRRLAHMPDLDAIRRSRLKKKTLFEMDEDQDVLAARAEYIRLAESLWRGLDPIDPHSLPDRDIFELLGFD
notes: BchL, Rhodobacter sphaeroides; coding region PCR-amplified from genomic DNA and cloned into pRSF-Duet 1 or pET-Duet 1; a TEV protease site follows the His tag; Homodimer with one [4Fe-4S] cluster at the dimer interface, ligated by two cysteines from each subunit; also called WT BchL
- binding result: binds
